Measurements: the supplement of paper PMC9170038

System: K4 kissing-loop RNA reporter
Assay: apparent KD of K4 kissing-loop reporter; higher = weaker reporter binding
Conditions: Eterna round: R107
Experimental: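 RNA-MaP round R107: designed RNA switches with theophylline, tryptophan, arginine or FMN aptamers are transcribed on-chip within common flanks. They are titrated with a labelled K4 kissing-loop RNA reporter in RNA-MaP buffer (100 mM Tris pH 7.5, 80 mM KCl, 4 mM MgCl2), without ligand or with the indicated ligand. Median apparent KD per design.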

[1] = input ligand: theophylline 20 uM
[2] = input ligand: tryptophan 2.4 mM
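Also: bound reporter read as fluorescence of individual clusters on recovered sequencing chips by microscopy, with normalized cluster intensities fitted with a binding model.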

Sequence | apparent KD of K4 kissing-loop reporter (input ligand: FMN 200 uM) [nM] | apparent KD of K4 kissing-loop reporter (input ligand: arginine 13.2 mM) [nM] | apparent KD of K4 kissing-loop reporter (input ligand: none) [nM] | apparent KD of K4 kissing-loop reporter [1] [nM] | apparent KD of K4 kissing-loop reporter [2] [nM]
GCAUAUACGAGAAGGAGCGUGCAUGACGAAUUAAUCAUCGACCUUAGUGAUGUUAAGGACGCACAGGUAGGUCGCUCGUGUAUGC [#04 K4 Arginine B Same State] | 380 | 322 | 347 | 345 | 354
GCCAGAGCGCGAAGGAGCGCCGUGACAGGUUGCUGCCGUGGGCAGUGAUGUUGCUCAGUCCGGCAGGUAGGUCGCGUGCUCUGGC | 422 | 434 | 548 | 433 | 372
GCCAGUGAUGUUGGCGAACCAACGCAUGCAGAGGAUAUUCGUUCGGGAAGAAGGCUGCAGCGUUCUCUCCCGCAGUGAUGUUGCG [Same State FMN A GF 25] | 164 | 141 | 169 | 153 | 150
GCCAGUGAUGUUGGCGAACCGACGCAUGCAGAGGAUAUUCGAUCUUGAAGAAGGCUGCAGCGUCAUCAUACGCAGUGAUGUUGCG [Same State FMN A GF 27] | 172 | 156 | 182 | 161 | 139
GCCGCCGCGGCAGGAUAUAGGUUCAUGGAGUGAUGUUCCAUAACCCGAGUGAUGUUCGUUAUCCGCCUAGAAGGGCCGCGGCGGC | 201 | 166 | 205 | 177 | 169
GCCGUACGCAUGGAUACCAGCAUCAGAUCUUAGUGAUGUUAAGUCGAGAGUUGGUCAAAAUGCCCUUGGCAGCCAUGCGUACGGC | 128 | 90.8 | 105 | 99.5 | 98.2
GCCGUACGCAUGGAUACCAGCUAUUAGAGUGAUGUUCUAUGGCCCUGCCAGAGUAGCUGUAGCCCUUGGCAGCCAUGCGUACGGC | 148 | 119 | 130 | 144 | 140
GCCGUACGCAUGGAUACCAGUCUUUCACGACUGGGCAUGGAGUGAUGUUUCGUGAUGCUAGACCCUUGGCAGCCAUGCGUACGGC | 201 | 163 | 175 | 184 | 175
GCCGUAGAUGGAAGGAGCGUGCGUGAAGUGAUGUUUCACGAAGAGUUUUCCACCUUAUAUGCACAGGUAGGUCGCCAUCUACGGC | 114 | 99 | 100 | 105 | 95.2
GCCGUAGAUUGAAGGAGCGGACAGAUACGGGAAUCCAGUGAUGUUGGAAGGUAACUACUAGUCCAGGUAGGUCGCAAUCUACGGC | 143 | 128 | 136 | 146 | 129
GCCUAGUGAUGUUGGGUAAUUUAAACCGGGCGAGGACCGGUACGGCCGCCACUCGGAAACACAACAAAAUUUAAUUUAAUUUAAA [Exclusion - Trytophan A] | 176 | 138 | 174 | 204 | 152
GCGAAGUGAUGUUUCGCCAAUAUUUGAUGAAAGGAUAUCUACUUGAAGAGAAGGUUCAUAUGACUCAAUACCUGACUUGGACCCG [theeternabot_sameState_KL_FMN_A_37] | 86.8 | 84.2 | 81.4 | 82.9 | 74.6
GCGAUUCAGUGAUGUUGGAAAUACAGGGAUACCAGCCGAAAAUAAGGCCCUUGGCAGCUUAAUAGGAAAGAACUAAGAAAGACGC [Theophylline A Same State; Euphoria Solution 3] | 556 | 603 | 671 | 755 | 460
GCGCGUCAUGUCAGCGGUGACACUGUCGAUACCAGUGCCGAAAGGCGCCCUUGGCAGCGACGUGCUGGAGUGAUGUUCCAGCGUU [#2 Exclusion - Theophylline A Attempt #30 (HarryS)] | 154 | 135 | 151 | 149 | 145
GCGCGUCAUGUUGGCGGGAACUAAGCCGAUACCAGCCGGGAAACCGGCCCUUGGCAGCGGCGCGCCGGAGUGAUGUUCCGACAGA [#2 Exclusion - Theophylline A Attempt #1 (HarryS)] | 226 | 246 | 254 | 284 | 164
GCGGCCCAGCCGGAUACCAGUGACCCGCUGGGAACCGCGGGCCCAGAGUGAUGUUCGGGACACCCUUGGCAGCCGCCUGGGUCGC [#2 Same State - Theophylline B Attempt #18 (HarryS)] | 689 | 274 | 928 | 684 | 320

Sequence | apparent KD of K4 kissing-loop reporter (input ligand: FMN 200 uM) [nM] | apparent KD of K4 kissing-loop reporter (input ligand: arginine 13.2 mM) [nM] | apparent KD of K4 kissing-loop reporter (input ligand: none) [nM] | apparent KD of K4 kissing-loop reporter [1] [nM] | apparent KD of K4 kissing-loop reporter [2] [nM]
GCGUCUUGGUCGGCCGCCACUGAGCCUAGUCACACUCUUGAGUGAUGUUGAAGAUGGUGGACUUGCAGGACCGGGACCACGGACG [theeternabot_sameState_KL_Trp_B_41] | 946 | 612 | 590 | 569 | 450
GCUACCUAUGCAGGAUAUGGUAUUACGAGUGAUGUUCGAGGCAUAUAGAGUGAUGUUCUAUAUCCACCAGAAGGGCAUAGGUAGC | 184 | 148 | 179 | 162 | 164
GCUCAGGAGUGAUGUUCCAAGUGAUGUUAACGAGGACCGGUACGGCCGCCACUCGAUACGGCCGGACCGUAAGAUAAACUAGAGC [Same State - Tryptophan A (Freestyle 8)] | 196 | 216 | 188 | 380 | 199
GGACAAGUUUCCGAUACCAGCCUUUAUGCUGGACUAGCUUGAUCAGUGGCUAGUGAUGUUGGCCCUUGGCAGCGGGACUCUUCGG [theeternabot_exclusion_KL_Theo_B_10] | 221 | 204 | 217 | 238 | 218
GGACGACAGGCGGCCGCCACUCAAAGCAGCCAGCGAGUGAUGUUCGUGGCGGAGUGAUGUUCCUAGAGGACCGGGUCUGCAGUUC [Same State Tryptophan B GF 18] | 449 | 390 | 468 | 490 | 362
GGAGCUACCUGGGAUACCAGUCGGAGUCUCAGAGCUCGGAGUGAUGUUCUGGGAUGUUUCGGCCCUUGGCAGCUCUGGGACUCCU [#2 Exclusion - Theophylline B Attempt #18 (HarryS)] | 872 | 749 | 864 | 763 | 881
GGAGGAGAGGGAAGGAGCGUGAAAGAGAAAGAAUAUAGUGAUGUUAUAUAGAAGAAAGAAUCACAGGUAGGUCGCCCGGAGGAGG [SSArgB.A] | 331 | 556 | 684 | 446 | 483
GGAUAGGACACAGGAUAUGGUAGUGAUGUUACCAAACUGGUUAAACAUGUCAGAAAACUGGCAUGACCAGAAGGGUGUCCUAUCG [FmnBX 27 C11+G75] | 83.4 | 63.8 | 66.2 | 71 | 63.8
GGAUAGGACAGAGGAUAUCCAGUGAUGUUGGAGAAUUCUCCUUCAUCAUGUCACAAAAGUGGCAUGGGAGAAGGCUGUCCUAUCG [Mod of Eli's FmnBX 29 v3] | 146 | 579 | 576 | 899 | 578
GGAUAGGACAGAGGAUAUCCUGAGUCUACAAAGUAGGCUCAUAAAGGAUGAAUCCUAGUGAUGUUAGGAGAAGGCUGUCCUAUCG [FmnBX 16 - #SwitchBubble #StaticStem #Palindromic] | 110 | 84.6 | 76.3 | 79.5 | 88.7
GGAUAGGACAGAGGAUAUCUCUAAAGAGGCAAGAAAACUUGUCUCAGAGAUGACUCAGUGAUGUUGAGAGAAGGCUGUCCUAUCG [FmnBX 7 - #SwitchBubble #StaticStem] | 425 | 161 | 174 | 168 | 152
GGAUAGGACAGAGGAUAUCUCUGAGGCAAGAAAACUUGUCUCUAAGGAGAUGACUCAGUGAUGUUGAGAGAAGGCUGUCCUAUCG [FmnBX 12 - #SwitchBubble #StaticStem] | 230 | 144 | 155 | 140 | 157
GGAUAGGAUAGAGGAUAUGGUAUAGGCAAGAAUAACUUGUCAUGUAAAUCCAUGAGGAGUGAUGUUCCAGAAGGCUGUCCUAUCG [MatMod 9 - Jieux - Exclusion - FMN B] | 620 | 179 | 231 | 168 | 123
GGAUCCACCAGUGAUGUUGGAGAAAACUCUAAGGAUAUGACGAAAGUCAGAAGGUGGUAGACUGGGCAAAGUCCGGUCGGAUCCA [FmnA10 U30+G66] | 490 | 120 | 378 | 873 | 660
GGAUGGUAGGCGGCCGCCACUAAAACUGAACACAUACAAACCAGUGAUGUUGGUAUGAUGAAGUAUAGGACCGGGCCUAGAUAGA [Exclusion - Tryptophan B (Freestyle 2)] | 1040 | 731 | 972 | 672 | 827
